Assays:
[1] = target: T1, hPD-1-Fc (human, UniProt Q15116 25-167); test: SPR, Exp. 1
T1 construct: domain: IgV domain; also called human PD-1-Fc; not shown: human IgG1 Fc

[2] = target: T2, hPD-1-his (human, UniProt Q15116 25-167); test: SPR, Exp. 1
T2 construct: domain: IgV domain; monomer in solution; biotin-labelled where captured by streptavidin; also called biotin-hPD-1-his

[3] = target: T1, hPD-1-Fc; test: SPR, Exp. 2
[4] = target: T2, hPD-1-his; test: SPR, Exp. 2
[5] = target: T1, hPD-1-Fc; test: SPR, Exp. 3
[6] = target: T2, hPD-1-his; test: SPR, Exp. 3
[7] = target: T2, hPD-1-his; test: SPR, Exp. 4
[8] = target: T1, hPD-1-Fc; test: ELISA, PD-1-Fc coated
[9] = target: T1, hPD-1-Fc; test: ELISA, hPD-1-Fc coated
[10] = target: T3, human PD-1 expressed on cells (human, UniProt Q15116 25-288); test: cell-based or functional assay
[11] = target: T2, hPD-1-his; test: ELISA, PD-1-his on anti-his
[12] = target: T2, hPD-1-his; test: ELISA, PD-1-his on anti-his; remark: listed apart in the source
[13] = target: T1, hPD-1-Fc; test: SPR, range over experiments
[14] = target: T1, hPD-1-Fc; test: blocking ELISA, PD-1 to PD-L1
[15] = target: T1, hPD-1-Fc; test: blocking ELISA, PD-1 to PD-L2
[16] = target: T3, human PD-1 expressed on cells; test: flow cytometry, hPD1-293 cells
[17] = target: T2, hPD-1-his; test: ELISA, PD-1-his on streptavidin
[18] = target: T1, hPD-1-Fc; test: blocking ELISA, hPD-1 to hPD-L1; parameters: unit not given here
[19] = target: T3, human PD-1 expressed on cells; test: flow cytometry, hPD-1-293 cells
[20] = target: T3, human PD-1 expressed on cells; test: flow cytometry, hPD1-Jurkat cells
[21] = target: T3, human PD-1 expressed on cells; test: flow cytometry, hPD-1-Jurkat cells
[22] = target: T1, hPD-1-Fc; test: SPR Biacore T200, PD-1-Fc immobilised
[23] = target: T2, hPD-1-his; test: SPR Biacore T200, PD-1-his immobilised
[24] = target: T2, hPD-1-his; test: ELISA, biotin-PD-1-his on streptavidin
[25] = target: T3, human PD-1 expressed on cells; test: flow cytometry, activated PBMC donor FA
[26] = target: T3, human PD-1 expressed on cells; test: flow cytometry, activated PBMC donor two
[27] = target: T3, human PD-1 expressed on cells; test: flow cytometry, SEB-activated PBMC donor
[28] = target: T3, human PD-1 expressed on cells; test: flow cytometry, SEB-activated PBMC donor two
[29] = target: T2, hPD-1-his; test: SPR (Biacore), hPD1his immobilised; lower end of the printed KD range over the experiments
[30] = target: T2, hPD-1-his; test: SPR (Biacore), hPD1his immobilised; upper end of the printed KD range over the experiments
[31] = target: T4, mPD1 (soluble, ELISA of Examples 20 and 24) (mouse, UniProt Q02242 25-167, limits assumed); test: ELISA, mPD1
T4 construct: also called Biotin-mPD1
T4 sequence (looked up): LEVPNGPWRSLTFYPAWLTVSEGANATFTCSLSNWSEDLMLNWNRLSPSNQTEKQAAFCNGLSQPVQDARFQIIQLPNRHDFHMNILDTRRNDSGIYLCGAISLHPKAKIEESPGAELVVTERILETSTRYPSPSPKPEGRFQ

[32] = target: T5, mPD-1-Fc (mouse; human, UniProt Q02242 25-167, limits assumed); test: ELISA, mPD-1-Fc
T5 construct: domain: IgV domain; not shown: human IgG1 Fc
T5 sequence (looked up): T4 sequence (looked up)

[33] = target: T5, mPD-1-Fc; test: SPR Biacore, mPD1-Fc
[34] = target: T6, mPD-1-his (mouse, UniProt Q02242 25-167, limits assumed); test: SPR Biacore, mPD1-his
T6 construct: domain: IgV domain
T6 sequence: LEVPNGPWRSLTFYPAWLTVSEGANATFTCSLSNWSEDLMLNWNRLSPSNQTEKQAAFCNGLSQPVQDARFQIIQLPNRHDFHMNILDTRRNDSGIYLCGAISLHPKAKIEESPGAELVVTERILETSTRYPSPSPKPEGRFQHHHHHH

[35] = target: T7, mouse PD-1 expressed on cells (mouse, UniProt Q02242 25-288); test: cell-based or functional assay
T7 sequence (looked up): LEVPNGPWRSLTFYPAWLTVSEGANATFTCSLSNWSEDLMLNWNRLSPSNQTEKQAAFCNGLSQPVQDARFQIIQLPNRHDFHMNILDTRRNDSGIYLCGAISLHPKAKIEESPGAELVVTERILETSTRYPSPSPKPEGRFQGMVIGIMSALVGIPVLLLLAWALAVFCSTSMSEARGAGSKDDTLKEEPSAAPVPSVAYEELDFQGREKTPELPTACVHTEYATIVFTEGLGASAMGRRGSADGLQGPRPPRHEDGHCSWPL

[36] = target: T4, mPD1 (soluble, ELISA of Examples 20 and …); test: blocking ELISA, mPD1 to mPDL1
[37] = target: T5, mPD-1-Fc; test: blocking ELISA, mPD-1 to PD-L1
[38] = target: T7, mouse PD-1 expressed on cells; test: flow cytometry, mPD1-293 cells
[39] = target: T7, mouse PD-1 expressed on cells; test: flow cytometry, mPD1-eff cells
[40] = target: T5, mPD-1-Fc; test: ELISA, mPD-1-Fc on streptavidin
[41] = target: T7, mouse PD-1 expressed on cells; test: flow cytometry, mPD-1-293 cells
[42] = target: T6, mPD-1-his; test: ELISA, mPD-1-his on streptavidin
[43] = target: T4, mPD1 (soluble, ELISA of Examples 20 and …); test: ELISA, biotin-mPD1 on streptavidin
[44] = target: hPD1 (soluble, ELISA of Example 20) (human, UniProt Q15116 25-167, limits assumed); test: ELISA, hPD1; direct binding ELISA on hPD1 (EC50 row)
Chain of hPD1 (soluble, ELISA of Example 20) (Q15116 25-167 limits assumed): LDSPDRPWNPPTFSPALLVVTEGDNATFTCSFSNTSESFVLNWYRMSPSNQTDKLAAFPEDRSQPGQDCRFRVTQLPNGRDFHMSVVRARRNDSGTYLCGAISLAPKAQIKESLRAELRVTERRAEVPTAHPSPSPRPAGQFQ

T3 sequence (Q15116 25-288): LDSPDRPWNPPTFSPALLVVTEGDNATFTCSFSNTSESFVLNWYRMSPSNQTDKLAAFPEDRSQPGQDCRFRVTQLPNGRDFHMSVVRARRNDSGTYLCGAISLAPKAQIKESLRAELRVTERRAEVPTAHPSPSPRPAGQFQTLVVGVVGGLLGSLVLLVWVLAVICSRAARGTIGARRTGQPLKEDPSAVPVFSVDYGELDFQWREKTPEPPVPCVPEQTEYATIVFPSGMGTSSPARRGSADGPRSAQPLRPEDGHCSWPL
T1 sequence (Q15116 25-167 limits assumed): as the sequence (Q15116 25-167 limits assumed) above
T2 sequence (Q15116 other isoform, or with tags, fused parts or gaps limits assumed): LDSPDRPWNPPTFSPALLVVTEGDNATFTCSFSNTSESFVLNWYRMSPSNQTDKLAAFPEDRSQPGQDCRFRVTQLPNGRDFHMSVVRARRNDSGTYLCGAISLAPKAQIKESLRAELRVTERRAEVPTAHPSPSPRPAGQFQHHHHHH

B1: 38A6 (antibody, V domains shown)
VH: EVQLLESGGGLVQPGGSLRLSCAASGFTFSSYWMSWVRQAPGKGLEWVSAISGSGGSTYYADSVKGRFTISRDNSKNTLYLQMNSLRAEDTAVYYCASSPLQWVDVWGQGTTVTVSS
VL: DIQMTQSPSSLSASVGDRVTITCRASQDISRWLGWYQQKPGKAPKLLIYAASTLQSGVPSRFSGSGSGTDFTLTISSLQPEDFATYYCQQANSFPFTFGPGTKLEIK
notes: also called 780_46
**Q.** What does the source list for B1?
**A.** Kd [1]: < 188 pM; Kd [2]: 2300 pM; Kd [3]: < 136 pM; Kd [4]: < 586 pM; Kd [5]: < 301 pM; Kd [6]: < 574 pM; Kd [7]: < 90 pM; EC50 [8]: 79 pM; OD at 10 nM [9]: 0.993 OD; EC50, Promega blockade bioassay [10]: 0.164 µg/mL; Fold induction [10]: 5.66 fold; OD at 10 nM [11]: 0.576 OD; EC50 [12]: 89 pM; Kd [13]: 140 to 300 pM; IC50 [14]: ~2140 pM; Inhibition % at 50 nM [14]: 92.2%; Inhibition, % at 5.56 nM [14]: 92%; IC50 [15]: 2390 pM; Inhibition, % at 3.7 nM [15]: 90.4%; Inhibition, % at 100 nM [15]: 94.8%; EC50 [16]: 150 pM; MFI at 5 nM [16]: 110 MFI; OD at 10 nM [17]: 0.948 OD; Inhibition at 50 nM [18]: 91.7; MFI, 5 nM [19]: 227 MFI; EC50 [20]: 210 pM; MFI at 5 nM [20]: 89.5 MFI; MFI, 5 nM [21]: 59.9 MFI; Kd [22]: 477 pM; Kd [23]: 1180 pM; EC50 [24]: 84 pM; EC50 [25]: 210 pM; MFI at 25 nM [25]: 14.5 MFI; EC50 [26]: 170 pM; MFI at 25 nM [26]: 15.9 MFI; MFI, 5 nM [27]: 65.2 MFI; MFI, 5 nM [28]: 54.7 MFI; Kd [29]: ≥ 900 pM; Kd [30]: ≤ 2300 pM

B2: R3A9 (antibody, V domains shown)
VH: QVQLVQSGAEVKKPGASVKVSCKASGHTFTSYYIHWVRQAPGQGLEWMGIINPSGGSTSYAQKFQGRVTMTRDTSTSTVYMELSSLRSEDTAVYYCARDRAYGGAGDYWGQGTLVTVSS
VL: DIQMTQSPSSLSASVGDRVTITCRASQSVGTWLAWYQQKPGKAPKLLIYSASTLQSGVPSRFSGSGSGTDFTLTISSLQPEDFATYYCQQSYSAPLTFGGGTKVEIK
notes: also called 7115A; mPD1 parental (R3A9)
**Q.** For B2, which EC50 [31] is on record?
**A.** 1360 pM

**Q.** And the EC50 [32]?
**A.** 14600 pM

**Q.** What about the Kd [33] of the same binder?
**A.** 12100 pM

**Q.** And the koff [33]?
**A.** 0.0014 s⁻¹

**Q.** What about the kon [33] of the same binder?
**A.** 116000 M⁻¹ s⁻¹

**Q.** And the Kd [34]?
**A.** 15700 pM

**Q.** And the koff [34]?
**A.** 0.00641 s⁻¹

**Q.** And the kon [34]?
**A.** 409000 M⁻¹ s⁻¹

**Q.** And the “IC 50, Promega assay” value [35]?
**A.** 1.62 µg/mL

**Q.** What about the IC50 [36] of the same binder?
**A.** 722 pM

**Q.** What about the IC50 [37] of the same binder?
**A.** 441 pM

**Q.** What about the EC50 [38] of the same binder?
**A.** 314 pM

**Q.** What about the EC50 [39] of the same binder?
**A.** 645 pM

**Q.** What about the EC50 [40] of the same binder?
**A.** 156 pM

**Q.** What about the EC50 [41] of the same binder?
**A.** 566 pM

**Q.** What about the EC50 [42] of the same binder?
**A.** 1610 pM

**Q.** And the EC50 [43]?
**A.** 462 pM

**Q.** What about the EC50 [44] of the same binder?
**A.** 3250 pM
